Values quoted from earlier work in paper PMC13051815.

Legend:
[1] = target: Bim BH3 peptide 86-111 (Homo sapiens) (UniProt O43521); assay: ITC
[2] = target: Bim BH3 peptide 86-111 (Homo sapiens) (UniProt O43521); assay: fluorescence polarization

UniProt O43521, sequence (O43521 86-111): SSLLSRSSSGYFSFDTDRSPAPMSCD

For Hsp70 NBD (from UniProt P0DMV8), the Kd [1] is listed as 400 nM and the Kd [2] is listed as greater than 30000 nM.
